From paper PMC5389471 (Nucleic Acids Research, 2016) come the findings set out here.

In data set [1] the target is AibR, TetR-like transcriptional regulator of the AIB-operon (Myxococcus xanthus). Put plainly: SEC.
For data set [2] the target is unchanged. Put plainly: crystal structure.
The target of data set [3] is T1, AibR (Myxococcus xanthus, UniProt Q1D4I5).
T1 sequence (Q1D4I5 1-228): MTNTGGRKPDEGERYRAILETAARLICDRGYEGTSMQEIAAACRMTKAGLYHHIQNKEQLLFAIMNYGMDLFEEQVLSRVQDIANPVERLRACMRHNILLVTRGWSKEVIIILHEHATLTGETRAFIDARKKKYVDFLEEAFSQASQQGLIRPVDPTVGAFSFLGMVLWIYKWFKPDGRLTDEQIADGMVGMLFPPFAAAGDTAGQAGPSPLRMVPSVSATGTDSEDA
The data set can be described thus: MST Kd with Cy5-labelled AibR. Format: binding.

For data set [4], the target named is T2, AibR (UniProt Q1D4I5 1-228).
T2 sequence: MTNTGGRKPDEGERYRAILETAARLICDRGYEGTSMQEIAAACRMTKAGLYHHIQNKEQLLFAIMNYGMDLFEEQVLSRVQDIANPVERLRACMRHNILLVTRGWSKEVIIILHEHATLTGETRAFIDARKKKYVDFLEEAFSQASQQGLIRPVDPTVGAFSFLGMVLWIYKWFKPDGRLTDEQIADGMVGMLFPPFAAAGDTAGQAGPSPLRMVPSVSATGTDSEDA
The data set can be described thus: EMSA. In general terms: Mobility shift assays separate free from complexed probe on a gel.

The target in data set [5] is T2, AibR. The data set can be described thus: MST.
For data set [6], the target named is T2, AibR. The data set can be described thus: crystal structure.

As usually defined, the stoichiometry N is the number of molecules, sites or subunits per partner or assembly. For the molecule “AibR, TetR-like transcriptional regulator of the AIB-operon (natural protein)”, the stoichiometry N in data set [1] and in data set [2] was 2 throughout.

The Kd is a measure of binding affinity in units of concentration. The low end stands for tighter binding, the high end for weaker binding. Take `CC(C)=CC(=O)SCCNC(=O)CCNC(=O)[C@H](O)C(C)(C)COP(=O)(O)OP(=O)(O)OC[C@H]1O[C@@H](n2cnc3c(N)ncnc32)[C@H](O)[C@@H]1OP(=O)(O)O` [3,3-dimethylacrylyl coenzyme A]: the dissociation constant (Kd) on AibR [3] was 5.8 ± 1.51 µM.

B1: aibR-Cy5 40 bp (dsDNA)
DNA 1: CCGCGTCGGGCGCTGCTACCTACCGGTCGGTAGGTCTCCA
DNA 2: TGGAGACCTACCGACCGGTAGGTAGCAGCGCCCGACGCGG
For B1, binding with AibR [4] was put at a Kd of 0.233 ± 0.02 µM.

B2: aibR8 (dsDNA)
DNA 1: CCGCGTCGGGCGCTGCTACCTACCGGTCGGTAGGTCTCCA
DNA 2: TCATCCGCGCCATGGAGACCTACCGACCGGTAGGTAGCAGCGCCCGACGCGG
On to B2, for which the binding result in the data set with AibR [4] was “binds”.

B3: Cy5 21 bp operator (dsDNA)
DNA 1: GCTACCTACCGGTCGGTAGGT
DNA 2: ACCTACCGACCGGTAGGTAGC
The molecule B3 came in with a Kd in the data set with AibR [5] of 2.3 ± 0.85 µM.

B4: 3aibR12 (G12T) (dsDNA)
DNA 1: CGCTGCTACCTACCGGTCTGTAGGTCTCCA
DNA 2: TCATCCGCGCCATGGAGACCTACAGACCGGTAGGTAGCAGCG
Consider B4, for which, in the data set with AibR [4], the binding result is given as “no binding”.

B5: P3791 (dsDNA)
DNA 1: CCCCTGCCCAACCTACCGGTCGGACGGTTCCTAGCGGG
DNA 2: TCATCCGCGCCACCCGCTAGGAACCGTCCGACCGGTAGGTTGGGCAGGGG
As to B5, in the data set with AibR [4], the binding result is recorded as “binds”.

B6: 16-bp palindrome (nt 2-17, G9A) (dsDNA)
DNA 1: CCTACCGATCGGTAGG
DNA 2: CCTACCGATCGGTAGG
For the molecule B6, in the data set with AibR [6], the binding result is on record as “binds”.
